Target: Photosystem II subunit S (PsbS) from Physcomitrella patens (Physcomitrella patens)
Assay: SDS-PAGE

Substance: Photosystem II subunit S (PsbS) from Physcomitrella patens (natural protein)
- stoichiometry N: 2
